Results from patent US20040053370A1 (Eli Lilly, published 2004).
Ends that are not written are not given here.

The binders below were run against GLP-1 receptor (assay: cell-based or functional assay).

Row | Binder | GLP-1 Receptor Activation
1 | HGEGHFTSDVSSYLEGQAAKEFIAWLVKGRG [Gly^8-His^11-GLP-1(7-37)OH] | 0.282 fold of GLP-1(7-37)OH
2 | HGEGTFTSDVSSYLEGQAAKEFIEWLVKGRG [Gly^8-Glu^30-GLP-1(7-37)OH] | 0.29 fold of GLP-1(7-37)OH
3 | HVEGTFTSDVSSYLEPQAAKEFIAWLVKGRG [Val^8-Pro^22-GLP-1(7-37)OH] | 0.01 fold of GLP-1(7-37)OH
4 | HVEGTFTSDVSSYLEGQAAKEFIAWLVKPRG [Val^8-Pro^35-GLP-1(7-37)OH] | 0.094 fold of GLP-1(7-37)OH
5 | HVEGTFTSDASSYLEGQAAKEFIAWLVKGRG [Val^8-Ala^16-GLP-1(7-37)OH] | 0.112 fold of GLP-1(7-37)OH
6 | HVEGTFTSDVSSYKEGQAAKEFIAWLVKGRG [Val^8-Lys^20-GLP-1(7-37)OH] | 0.33 fold of GLP-1(7-37)OH
7 | HVEGTFTSDVSSYLEEQAAKEFIAWLVKGRG [Val^8-Glu^22-GLP-1(7-37)OH] | 1.29 fold of GLP-1(7-37)OH
8 | HVEGTFTSDVSSYLEGQAAKEFIAWLGKGRG [Val^8-Gly^33-GLP-1(7-37)OH] | 0.01 fold of GLP-1(7-37)OH
9 | HVEGTFTSDVSSYLEGQAAKEFIAWLVKHRG [Val^8-His^35-GLP-1(7-37)OH] | 0.41 fold of GLP-1(7-37)OH
10 | HVEGTFTSDVSSYLEGQHAKEFIAWLVKGRG [Val^8-His^24-GLP-1(7-37)OH] | 0.007 fold of GLP-1(7-37)OH
11 | HVEGTFTSDVSSYLEGQKAKEFIAWLVKGRG [Val^8-Lys^24-GLP-1(7-37)OH] | 0.02 fold of GLP-1(7-37)OH
12 | HVEGTFTSDVSSYLEGQAAKEFIEWLVKGRG [Val^8-Glu^30-GLP-1(7-37)OH] | 0.29 fold of GLP-1(7-37)OH
13 | HVEGTFTSDVSSYLEGQAAHEFIAWLVKGRG [Val^8-His^26-GLP-1(7-37)OH] | 1.6 fold of GLP-1(7-37)OH
14 | HVEGTFTSDVSSYLEHQAAKEFIAWLVKGRG [Val^8-His^22-GLP-1(7-37)OH] | 0.14 fold of GLP-1(7-37)OH
15 | HAEGTFTSDVSSYLEQQAAKEFIAWLVKGRG [Gln^22-GLP-1(7-37)OH] | 0.42 fold of GLP-1(7-37)OH
16 | HVEGTFTSDVSSYLEGQAAKHFIAWLVKGRG [Val^8-His^27-GLP-1(7-37)OH] | 0.37 fold of GLP-1(7-37)OH
17 | HVEGTFTSDVSSYLEKEAAKEFIAWLVKGRG [Val^8-Lys^22-Glu^23-GLP-1(7-37)OH] | 0.35 fold of GLP-1(7-37)OH
18 | HVEGTFTSDVSSYLEGQAAKEFIAWLVKGRH [Val^8-His^37-GLP-1(7-37)OH] | 0.33 fold of GLP-1(7-37)OH
19 | HVEGTFTSDVSSYLEGQAAKEFIAWLAKGRG [Val^8-Ala^33-GLP-1(7-37)OH] | 0.1 fold of GLP-1(7-37)OH
20 | HVEGTFTSDESSYLEGQAAKEFIAWLVKGRG [Val^8-Glu^16-GLP-1(7-37)OH] | 0.047 fold of GLP-1(7-37)OH
21 | HVEGTFTSDVSSYLEGQAAEEFIAWLVKGRG [Val^8-Glu^26-GLP-1(7-37)OH] | 1.5 fold of GLP-1(7-37)OH
22 | HVEGTFTSDVSSYLEAQAAKEFIAWLVKGRG [Val^8-Ala^22-GLP-1(7-37)OH] | 0.56 fold of GLP-1(7-37)OH

Row | Binder | GLP-1 Receptor Activation
23 | HVEGTFTSDVSSYLEEKAAKEFIAWLVKGRG [Val^8-Glu^22-Lys^23-GLP-1(7-37)OH] | 1.43 fold of GLP-1(7-37)OH
24 | HVEGTFTSDVSSYLEGQAAKEFISWLVKGRG [Val^8-Ser^30-GLP-1(7-37)OH] | 0.19 fold of GLP-1(7-37)OH
25 | HVEGTFTSDVSSYLEGQAAKEFIAWLVKGEG [Val^8-Glu^36-GLP-1(7-37)OH] | 0.11 fold of GLP-1(7-37)OH
26 | HVEGTFTSDVSSYLEKQAAKEFIEWLVKGRG [Val^8-Lys^22-Glu^30-GLP-1(7-37)OH] | 0.37 fold of GLP-1(7-37)OH
27 | HVEGTFTSDVSSYLEGQAAKEFIAWLVEGRG [Val^8-Glu^34-GLP-1(7-37)OH] | 0.17 fold of GLP-1(7-37)OH
28 | HVEGTFTSDVSSYLEGQAAKEFIDWLVKGRG [Val^8-Asp^30-GLP-1(7-37)OH] | 0.15 fold of GLP-1(7-37)OH
29 | HVEGTFTSDVSSYLEGQAAKEFIAWLVKGHG [Val^8-His^36-GLP-1(7-37)OH] | 0.22 fold of GLP-1(7-37)OH
30 | HVEGTFTSDVSSYLESQAAKEFIAWLVKGRG [Val^8-Ser^22-GLP-1(7-37)OH] | 0.5 fold of GLP-1(7-37)OH
31 | HVEGKFTSDVSSYLEGQAAKEFIAWLVKGRG [Val^8-Lys^11-GLP-1(7-37)OH] | 0.001 fold of GLP-1(7-37)OH
32 | HVEGTFTSDVSSYLEDQAAKEFIAWLVKGRG [Val^8-Asp^22-GLP-1(7-37)OH] | 0.4 fold of GLP-1(7-37)OH
33 | HVEGTFTSDVSSYLEGKAAKEFIAWLVKGRG [Val^8-Lys^23-GLP-1(7-37)OH] | 0.18 fold of GLP-1(7-37)OH
34 | HVEGTFTSDVSSYLEGQAAKEFIAWLVKERG [Val^8-Glu^35-GLP-1(7-37)OH] | 0.15 fold of GLP-1(7-37)OH
35 | HVEGTFTSDVSSYLEKQAAKEFIAWLVKGRG [Val^8-Lys^22-GLP-1(7-37)OH] | 0.58 fold of GLP-1(7-37)OH
36 | HVEGTFTSDVSSYLEGQAAKEFIAWLEKGRG [Val^8-Glu^33-GLP-1(7-37)OH] | 0.039 fold of GLP-1(7-37)OH
37 | HVEGTFTSDVSSYLEGQAAKEFIHWLVKGRG [Val^8-His^30-GLP-1(7-37)OH] | 0.19 fold of GLP-1(7-37)OH
38 | HVEGAFTSDVSSYLEGQAAKEFIAWLVKGRG [Val^8-Ala^11-GLP-1(7-37)OH] | 0.021 fold of GLP-1(7-37)OH
39 | HVEGTFTSDVSSYLEGQAAKEFIAWLKVGRG [Val^8-Lys^33-Val^34-GLP-1(7-37)OH] | 0.08 fold of GLP-1(7-37)OH
40 | HVEGTFTSDVSSYLEGQAAKEFIAWLVGKRG [Val^8-Gly^34-Lys^35-GLP-1(7-37)OH] | 0.34 fold of GLP-1(7-37)OH
41 | HVEGTFTSDVSSYLEGQAAKEFIAWLVKGGP-NH2 [Val^8-Gly^36-Pro^37-GLP-1(7-37)NH2] | 0.53 fold of GLP-1(7-37)OH
42 | HVEGTFTSDVSSYLEKQAAKEFIAWLVKGR-NH2 [Val^8-Lys^22-GLP-1(7-36)NH2] | 0.53 fold of GLP-1(7-37)OH
43 | HVEGTFTSDVSSYLEEQAAKEFIAWLVKGR-NH2 [Val^8-Glu^22-GLP-1(7-36)NH2] | 1 fold of GLP-1(7-37)OH
44 | HVEGTFTSDLSSYLEGQAAEEFIAWLVKGRG [Val^8-Leu^16-Glu^26-GLP-1(7-37)OH] | 0.23 fold of GLP-1(7-37)OH

Molecular target: GLP-1 receptor
Assay: cell-based or functional assay
Remark: another data set of the same source

Row | Binder | GLP-1 Receptor Activation
45 | HVEGTFTSDVSSYFEEQAAKEFIAWLVKGRG [Val^8-Phe^20-Glu^22-GLP-1(7-37)OH] | 1.27 fold of GLP-1(7-37)OH
46 | HVEGTFTSDVSSYLEEQALKEFIAWLVKGRG [Val^8-Glu^22-Leu^25-GLP-1(7-37)OH] | 1.32 fold of GLP-1(7-37)OH
47 | HVEGTYTSDVSSYLEEQAAKEFIAWLVKGRG [Val^8-Tyr^12-Glu^22-GLP-1(7-37)OH] | 1.27 fold of GLP-1(7-37)OH
48 | HVEGTWTSDVSSYLEGQAAKEFIAWLVKGRG [Val^8-Trp^12-GLP-1(7-37)OH] | 0.52 fold of GLP-1(7-37)OH
49 | HVEGTFTSDYSSWLEEQAAKEFIAWLVKGRG [Val^8-Tyr^16-Trp^19-Glu^22-GLP-1(7-37)OH] | 1.64 fold of GLP-1(7-37)OH
50 | HVEGTWTSDVSSYLEEQAAKEFIAWLVKGRG [Val^8-Trp^12-Glu^22-GLP-1(7-37)OH] | 0.8 fold of GLP-1(7-37)OH
51 | HGEGTFTSDVSSYLEGQAAKEFIAWLVKGRG [Gly^8-GLP-1(7-37)OH] | 0.8 fold of GLP-1(7-37)OH
52 | HVEGTFTSDVSSYLEEQAAKIFIAWLVKGRG [Val^8-Glu^22-Ile^27-GLP-1(7-37)OH] | 0.94 fold of GLP-1(7-37)OH
53 | HVEGTFTSDCSSYLEGQAAKEFIAWLVKGRG [Val^8-Cys^16-Lys^26-GLP-1(7-37)OH] | 1.97 fold of GLP-1(7-37)OH
54 | HVEGTFTSDVSSYLEGQALKEFIAWLVKGRG [Val^8-Leu^25-GLP-1(7-37)OH] | 0.24 fold of GLP-1(7-37)OH
55 | HVEGTFTSDLSSYLEGQAAKEFIAWLVKGRG [Val^8-Leu^16-GLP-1(7-37)OH] | 0.52 fold of GLP-1(7-37)OH
56 | HVEGTFTSDVSSYLEEQAIKEFIAWLVKGRG [Val^8-Glu^22-Ile^25-GLP-1(7-37)OH] | 1.46 fold of GLP-1(7-37)OH
57 | HVEGTYTSDVSSYLEGQAAKEFIAWLVKGR-NH2 [Val^8-Tyr^12-GLP-1(7-36)NH2] | 0.52 fold of GLP-1(7-37)OH
58 | HVEGTFTSDWSSYLEEQAVKEFIAWLIKGRG [Val^8-Trp^16-Glu^22-Val^25-Ile^33-GLP-1(7-37)OH] | 2.35 fold of GLP-1(7-37)OH
59 | HVDGIFTSDYSSYLEEQAAKEFIAWLVKGRG [Val^8-Asp^9-Ile^11-Tyr^16-Glu^22-GLP-1(7-37)OH] | 2.02 fold of GLP-1(7-37)OH
60 | HVEGTYTSDYSSYLEGQAAKEFIAWLVKGRG [Val^8-Tyr^12-Tyr^16-GLP-1(7-37)OH] | 0.7 fold of GLP-1(7-37)OH
